The text below walks through data of publication PMC5772516.

For assay [1], the target named is vascular endothelial growth factor (VEGF165) (human). The assay can be described thus: SDS-PAGE; VEGF solution before reduction (non-reducing).
The target is the same in assay [2]. The assay can be described thus: solid-state nanopore translocation; 0.2 nM to 100 nM VEGF, pH 7.2, V = −500 mV, ~5–6.5 nm pore; 1 M KCl, 50 mM phosphate buffer, 5 mM EDTA, 22.0 ± 0.5 °C; 0.5 mM TCEP added afterwards shifts the events to single-level group A (71%).
Assay [3] has the same target. The assay can be described thus: solid-state nanopore translocation; 20 nM VEGF, pH 7.6, V = +500 mV, ~5.5 nm pore in 12 nm SiNx; 1 M KCl, 50 mM phosphate buffer, 5 mM EDTA, 22.0 ± 0.5 °C; then 0.5 mM TCEP added in the same pore (events converge into one lower-amplitude group, 92%).

Where “and” joins values, the source holds several entries; their conditions need not be identical. Equal values may be shown once.

Turning to “vascular endothelial growth factor (VEGF165) (natural protein)”, the stoichiometry N in assay [1] is 2 and 3. In assay [2], the percent of translocation events in group B (dimer) at 20 nM stood at 12%; the percent of translocation events in level B and B/A (dimeric state) at 0.2 nM was found to be 6%; the percent of translocation events in level B and B/A (dimeric state) at 100 nM stood at 59%; the percent of translocation events with a B to A multi-level pattern at 20 nM stood at 28%. Moreover, the stoichiometry N in assay [2] stood at 2. The stoichiometry N in assay [3] is 2 and 3.
